Experiments:
[1] = molecular target: T1, recombinant human PLVAP51-442 protein (extracellular domain, His tag removed by thrombin) (human, UniProt Q9BX97 51-442); experiment: Biacore T-100
T1 construct: also called recombinant PLVAP protein; recombinant PLVAP
T1 sequence: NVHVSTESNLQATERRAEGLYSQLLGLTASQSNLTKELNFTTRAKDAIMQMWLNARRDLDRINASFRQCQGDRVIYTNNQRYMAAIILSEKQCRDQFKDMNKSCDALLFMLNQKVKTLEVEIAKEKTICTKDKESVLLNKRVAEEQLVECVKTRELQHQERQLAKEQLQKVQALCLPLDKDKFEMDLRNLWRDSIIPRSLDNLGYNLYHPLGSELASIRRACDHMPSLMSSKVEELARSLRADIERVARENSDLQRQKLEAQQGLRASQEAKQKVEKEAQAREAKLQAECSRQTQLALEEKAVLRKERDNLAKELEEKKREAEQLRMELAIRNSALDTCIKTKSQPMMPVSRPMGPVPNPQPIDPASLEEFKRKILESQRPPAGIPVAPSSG

[2] = molecular target: T1, recombinant human PLVAP51-442 protein …; experiment: ANTQ300 quartz crystal microbalance
[3] = molecular target: T2, peptide encompassing amino acids 378 to 404 of human PLVAP, expressed by an E. coli clone of the Novatope … (human); experiment: colony blot of Novatope fragment library
T2 peptide: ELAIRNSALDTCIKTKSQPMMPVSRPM
Method: PCR was performed using the following thermal cycle: 94° C. for 5 min, followed by 35 cycles of 94° C. for 30 s, 56° C. for 30 s and 72° C. for 60 s. DNA was purified with the Qiaquick PCR purification kit (Qiagen, Surrey, UK) and then used in the construction of a PLVAP Novatope library according to the manufacturer's instructions (Novagen, Merck Biosciences Ltd., Beeston, UK). Briefly, purified PCR product was digested with DNAse I in the presence of Mn²⁺ and fragments between 50-150 base pairs (bp) were gel purified using a gel extraction kit (Qiagen). The DNA fragments were end-filled using T4 DNA polymerase and Tth polymerase to add a single dA residue to each 3′ end and then ligated into the pScreen 1b(+)T-vector (Novagen), which is designed to express small inserts as a carboxy-terminal fusion to the T7 bacterial phage gene 10 capsid protein. The library was transformed into NovaBlue (DE3) cells and plated onto Luria-Bertani (LB) media plates containing carbenicillin (50 μg/ml) and tetracycline (12.5 μg/m). The resulting human PLVAP cDNA library was screened (approximately 10⁴ colonies for each antibody) using the method described in the Novatope manual: Colonies expressing PLVAP fragments were transferred to nitrocellulose filters by contact with the colony for 1 min. Bacterial colonies on the filters were lysed by incubating in a sealed chloroform vapor chamber for 15 min. […]

[4] = molecular target: T1, recombinant human PLVAP51-442 protein …; experiment: competition ELISA on coated recombinant PLVAP; competitor biotinylated murine KFCC-GY5
Method: The binding of KFCC-GY4 and KFCC-GY5 human antibody variants to recombinant PLVAP was assessed in a competition ELISA. Either a dilution series of variant or control antibody from 30 μg/m to 0.014 μg/m (final concentration) was premixed with a constant concentration of biotinylated murine KFCC-GY4 (0.3 μg/ml, final concentration) or a dilution series of variant or control antibody from 10 μg/m to 0.004 μg/ml (final concentration) was premixed with a constant concentration of biotinylated murine KFCC-GY5 (0.1 μg/ml, final concentration) before incubating for 1 hour at room temperature on a Nunc Immuno MaxiSorp 96 well flat bottom microtitre plate (Fisher Catalogue No. DIS-971-030J) precoated with 1 μg/m recombinant “protein P” diluted in PBS. The binding of the biotinylated mAb was determined by detection with streptavidin-HRP and TMB substrate. After stopping the reaction with 3M HCl, absorbance was measured at 450 nm on a Dynex Technologies MRX TC II plate reader and the binding curves of the test antibodies compared against the mouse reference standard.
Similarly, the four lead variants of IgG4-GY5 and murine KFCC-GY5 antibodies have very similar binding profiles (FIG. 49). All of the lead variants shown are within two-fold of the original murine monoclonal antibody.

[5] = molecular target: T3, His-tagged human PLVAP51-292 (human, UniProt Q9BX97 51-292); experiment: immunoblot of total protein extract of E. coli expressing the His-tagged protein
T3 construct: also called N-terminal portion of the extracellular domain; not shown: His tag and vector residues of pET-15b
T3 sequence: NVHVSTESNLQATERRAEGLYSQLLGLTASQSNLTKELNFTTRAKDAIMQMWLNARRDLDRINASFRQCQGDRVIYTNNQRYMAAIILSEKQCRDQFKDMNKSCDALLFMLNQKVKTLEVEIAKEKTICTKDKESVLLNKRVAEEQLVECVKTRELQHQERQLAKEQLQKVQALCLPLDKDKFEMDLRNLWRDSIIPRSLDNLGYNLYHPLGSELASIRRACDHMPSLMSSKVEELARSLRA
Text: (§1) Molecular weight protein standards are resolved in Lane M.

His-tagged human CEACAM6 = molecular target: T4, His-tagged human CEACAM6 (human, UniProt P40199 35-320, limits assumed); experiment: as above
T4 construct: also called human CEACAM6 protein unrelated to PLVAP (lane 4); not shown: His tag
T4 sequence (looked up): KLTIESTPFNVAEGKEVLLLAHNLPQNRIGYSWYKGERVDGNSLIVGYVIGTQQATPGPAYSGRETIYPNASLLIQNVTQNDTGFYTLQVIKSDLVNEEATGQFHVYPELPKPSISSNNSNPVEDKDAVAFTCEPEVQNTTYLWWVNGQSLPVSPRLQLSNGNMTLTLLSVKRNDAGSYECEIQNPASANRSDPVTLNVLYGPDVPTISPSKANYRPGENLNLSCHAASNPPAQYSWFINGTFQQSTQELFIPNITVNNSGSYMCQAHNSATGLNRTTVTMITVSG
Text: as §1

[6] = molecular target: T1, recombinant human PLVAP51-442 protein …; experiment: competition ELISA on coated recombinant PLVAP; competitor biotinylated murine KFCC-GY5 at 0.1 µg/ml
Method: The binding of chimeric KFCC-GY4 and KFCC-GY5 antibodies to recombinant PLVAP protein was assessed in a competition ELISA. Either a dilution series of chimeric or control antibody from 30 μg/ml to 0.014 μg/m (final concentration) was premixed with a constant concentration of biotinylated murine KFCC-GY4 (0.3 μg/ml, final concentration) or a dilution series of chimeric or control antibody from 10 μg/ml to 0.004 μg/m (final concentration) was premixed with a constant concentration of biotinylated murine KFCC-GY5 (0.1 μg/ml, final concentration) before incubating for 1 hour at room temperature on a Nunc Immuno MaxiSorp 96 well flat bottom microtitre plate (Fisher Catalogue No. DIS-971-030J) precoated with 1 μg/ml recombinant PLVAP protein diluted in PBS. The binding of the biotinylated mAb was determined by detection with streptavidin-HRP and TMB substrate.
Therefore, the correct variable region sequences for the parent murine monoclonal antibodies were identified and cloned.

Kd [1]: 59.8 nM
koff [1]: 0.000414 s⁻¹
kon [1]: 6930 M⁻¹ s⁻¹
Kd [2]: 41 nM
binding result [3]: binds
IC50 [4]: 0.38 µg/mL
IC50 (ratio compared to GY5 mAb) [4]: 1
binding result [5]: no binding
binding result (His-tagged human CEACAM6): no binding
IC50 [6]: 0.49 µg/mL
B1: KFCC-GY5 monoclonal antibody (murine, hybridoma ATCC PTA-9964) (antibody, mouse IgG1, V domains shown)
VH: QVQLQQPGAELVRPGASVKLSCKASGYTFTSNYINWVKQRPGQGLEWIGNIYPSDGFTNYNQKFKDRATLTVDKSSSTAYMQLSSPTSEDSAVYYCTRNFDVWGAGTTVTVSS
VL: DVVMTQTPLSLPVSLGDQASISCRSSQSLVHSNGNTYLQWYLQKPGQSPKLLIYTVSNRFSGVPDRFSGSGSGPDFTLKISRVEAEDLGVYFCSQSTHVPFTFGSGTKLEIK
notes: also called GY5 mAB; KFCC-GY5 mAb
